Positions of bridges follow the written chain, without caps; N, C: chain ends. Non-standard residues stand in square brackets, D forms with d. Trp(7-Me) = Cc1cccc2c(C[C@H](N)C(=O)O)c[nH]c12; 2Nal = N[C@@H](Cc1ccc2ccccc2c1)C(=O)O; d2Nal = N[C@H](Cc1ccc2ccccc2c1)C(=O)O; AEF = NCCOc1ccc(C[C@H](N)C(=O)O)cc1; αMeF = C[C@](N)(Cc1ccccc1)C(=O)O; Cit = NC(=O)NCCC[C@H](N)C(=O)O; Pen = CC(C)(S)[C@H](N)C(=O)O; αMeK = C[C@](N)(CCCCN)C(=O)O; Dab = NCC[C@H](N)C(=O)O; Abu = CC[C@H](N)C(=O)O; Aib = CC(C)(N)C(=O)O; βAla = NCCC(=O)O; Sar = CNCC(=O)O
T1: interleukin-23 receptor (IL-23R) (human, UniProt Q5VWK5 24-629)
T1 sequence (looked up): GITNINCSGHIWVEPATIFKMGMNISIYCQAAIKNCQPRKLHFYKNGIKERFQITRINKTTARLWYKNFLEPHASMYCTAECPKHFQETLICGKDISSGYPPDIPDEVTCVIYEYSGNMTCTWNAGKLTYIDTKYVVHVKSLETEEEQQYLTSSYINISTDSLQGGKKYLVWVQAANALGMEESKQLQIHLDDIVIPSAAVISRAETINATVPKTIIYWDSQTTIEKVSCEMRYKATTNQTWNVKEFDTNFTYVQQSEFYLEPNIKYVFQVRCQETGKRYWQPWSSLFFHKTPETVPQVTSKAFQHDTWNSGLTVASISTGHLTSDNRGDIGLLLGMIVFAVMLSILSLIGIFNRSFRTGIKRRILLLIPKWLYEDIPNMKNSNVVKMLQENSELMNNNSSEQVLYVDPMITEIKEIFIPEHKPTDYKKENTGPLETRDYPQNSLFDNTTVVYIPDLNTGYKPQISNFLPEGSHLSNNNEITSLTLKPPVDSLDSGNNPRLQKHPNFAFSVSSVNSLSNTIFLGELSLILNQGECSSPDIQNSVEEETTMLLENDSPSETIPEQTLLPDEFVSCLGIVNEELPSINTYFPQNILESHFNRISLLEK


Biological target: T1, interleukin-23 receptor (IL-23R)
Assay: cell-based or functional assay

Binder	pStat3 HTRF IC50
Ac-[Pen]GT[Trp(7-Me)]K(Ac)[Pen][AEF][2Nal][αMeK]K(Ac)N[dL]-NH2 (disulfide 1-6 (inferred)) [Peptide of SEQ ID NO: 329]	0.77 nM
Ac-[Pen]K(Ac)T[Trp(7-Me)]K(Ac)[Pen][AEF][2Nal][αMeK]K(Ac)N[dL]-NH2 (disulfide 1-6 (inferred)) [Peptide of SEQ ID NO: 330]	1.38 nM
XNTXQXXXXKNX (Ac-[Pen]-NT-[W(4-OMe)]-Q-[Pen]-Phe[4-(2-aminoethoxy)]-[2-Nal]-[a-MeLys]-[Lys(Ac)]-N-[bA]-NH2; Pen-Pen disulfide) [Peptide of SEQ ID NO: 229]	23.1 nM
XNTXKXXXXKNV (Ac-[Pen]-NT-[W(7-Me)]-[Lys(Ac)]-[Pen]-Phe[4-(2-aminoethoxy)]-[2-Nal]-[a-MeLys]-[Lys(Ac)]-N-V-NH2; Pen-Pen disulfide) [Peptide of SEQ ID NO: 250]	1.82 nM
XNTXXXXXXKNL (Ac-[Pen]-N-T-[W(7-Me)]-[Lys(bAla)]-[Pen]-Phe[4-(2-aminoethoxy)]-[2-Nal]-[a-MeLys]-[Lys(Ac)]-N-[(D)Leu]-NH2; Pen-Pen disulfide) [Peptide of SEQ ID NO: 321]	1.04 nM
Ac-[Pen]RT[Trp(7-Me)]K(Ac)[Pen][AEF][2Nal][αMeK]K(Ac)N[dL]-NH2 (disulfide 1-6 (inferred)) [Peptide of SEQ ID NO: 336]	1.49 nM
Ac-[Pen]NT[Trp(7-Me)][Cit][Pen][AEF][2Nal][αMeK]K(Ac)N[Aib]R-NH2 (disulfide 1-6 (inferred)) [Peptide of SEQ ID NO: 343]	1.43 nM
XNTXXXXXXKNL (Ac-[Pen]-N-T-[W(7-Me)]-[Lys(Aib)]-[Pen]-Phe[4-(2-aminoethoxy)]-[2-Nal]-[a-MeLys]-[Lys(Ac)]-N-[(D)Leu]-NH2; Pen-Pen disulfide) [Peptide of SEQ ID NO: 322]	0.648 nM
Ac-[Pen]NT[Trp(7-Me)][Aib][Pen][AEF][2Nal][αMeK]K(Ac)N[βAla]-NH2 (disulfide 1-6; SMILES CC(=O)NCCCC[C@H](NC(=O)[C@](C)(CCCCN)NC(=O)[C@H](Cc1ccc2ccccc2c1)NC(=O)[C@H](Cc1ccc(OCCN)cc1)NC(=O)[C@H]1NC(=O)C(C)(C)NC(=O)[C@H](Cc2c[nH]c3c(C)cccc23)NC(=O)[C@H]([C@@H](C)O)NC(=O)[C@H](CC(N)=O)NC(=O)[C@@H](NC(C)=O)C(C)(C)SSC1(C)C)C(=O)N[C@@H](CC(N)=O)C(=O)NCCC(N)=O) [Peptide of SEQ ID NO: 241]	12.5 nM
XNTXQXXXXGPX (Ac-[Pen]-NT-[W(7-Me)]-Q-[Pen]-Phe[4-(2-aminoethoxy)]-[2-Nal]-[a-MeLeu]-G-P-[bA]-NH2; Pen-Pen disulfide) [Peptide of SEQ ID NO: 219]	93.7 nM
Ac-[Pen]LT[Trp(7-Me)]K(Ac)[Pen][AEF][2Nal][αMeK]K(Ac)N[dL]-NH2 (disulfide 1-6 (inferred)) [Peptide of SEQ ID NO: 332]	1.06 nM
XNTXKXXXXKNK (Ac-[Pen]-N-T-[W(2-Me)]-[Lys(Ac)]-[Pen]-Phe[4-(2-aminoethoxy)]-[2-Nal]-[a-MeLys]-[Lys(Ac)]-N-[(D)Lys]-NH2; Pen-Pen disulfide) [Peptide of SEQ ID NO: 351]	11.3 nM
Ac-[Pen][Dab](Ac)T[Trp(7-Me)]K(Ac)[Pen][AEF][2Nal][αMeK]K(Ac)N[dL]-NH2 (disulfide 1-6 (inferred)) [Peptide of SEQ ID NO: 335]	0.567 nM
XNTXKXXXXKNL (Ac-[Pen]-NT-[W(7-Me)]-[Lys(Ac)]-[Pen]-Phe[4-(2-aminoethoxy)]-[2-Nal]-[a-MeLys]-[Lys(Ac)]-N-L-NH2; Pen-Pen disulfide) [Peptide of SEQ ID NO: 244]	1.45 nM
XNTXQXXXXGPX (Ac-[Pen]-NT-[W(7-Me)]-Q-[Pen]-Phe[4-(2-aminoethoxy)]-[2-Nal]-[a-MeLeu]-G-[(D)Pro]-[bA]-NH2; Pen-Pen disulfide) [Peptide of SEQ ID NO: 220]	195 nM
XQTXQXXXXKNX (Ac-[Pen]-Q-T-[W(7-Me)]-Q-[Pen]-Phe[4-(2-aminoethoxy)]-[2-Nal]-[a-MeLys]-[Lys(Ac)]-N-[bA]-NH2; Pen-Pen disulfide) [Peptide of SEQ ID NO: 237]	3.39 nM
Ac-[Pen][Aib]T[Trp(7-Me)]Q[Pen][AEF][2Nal][αMeK]K(Ac)N[βAla]-NH2 (disulfide 1-6; SMILES CC(=O)NCCCC[C@H](NC(=O)[C@](C)(CCCCN)NC(=O)[C@H](Cc1ccc2ccccc2c1)NC(=O)[C@H](Cc1ccc(OCCN)cc1)NC(=O)[C@H]1NC(=O)[C@H](CCC(N)=O)NC(=O)[C@H](Cc2c[nH]c3c(C)cccc23)NC(=O)[C@H]([C@@H](C)O)NC(=O)C(C)(C)NC(=O)[C@@H](NC(C)=O)C(C)(C)SSC1(C)C)C(=O)N[C@@H](CC(N)=O)C(=O)NCCC(N)=O) [Peptide of SEQ ID NO: 240]	17.7 nM
Ac-[dR][Abu]QT[Trp(7-Me)]K(Ac)C[AEF][2Nal][αMeK]K(Ac)N[dK][Sar]-NH2 (thioether 2-7 (inferred)) [Peptide of SEQ ID NO: 323]	5.33 nM
XNTXKXXXXKNR (Ac-[Pen]-NT-[W(7-Me)]-[Lys(Ac)]-[Pen]-Phe[4-(2-aminoethoxy)]-[2-Nal]-[a-MeLys]-[Lys(Ac)]-N-R-NH2; Pen-Pen disulfide) [Peptide of SEQ ID NO: 243]	1.87 nM
Ac-[Pen]AT[Trp(7-Me)]K(Ac)[Pen][AEF][2Nal][αMeK]K(Ac)N[dL]-NH2 (disulfide 1-6 (inferred)) [Peptide of SEQ ID NO: 328]	0.78 nM

Now from value to binder:

pStat3 HTRF IC50	Binder
5.02 nM	Ac-[Pen]NT[Trp(7-Me)][Cit][Pen][AEF][2Nal][αMeK]K(Ac)N[Aib][d2Nal]-NH2 (disulfide 1-6 (inferred)) [Peptide of SEQ ID NO: 348]
9.3 nM	Ac-[Pen]PT[Trp(7-Me)]K(Ac)[Pen][AEF][2Nal][αMeK]K(Ac)N[dL]-NH2 (disulfide 1-6 (inferred)) [Peptide of SEQ ID NO: 333]
25.7 nM	XNTXQXXXXKNX (Ac-[Pen]-NT-[W(6-Cl)]-Q-[Pen]-Phe[4-(2-aminoethoxy)]-[2-Nal]-[a-MeLys]-[Lys(Ac)]-N-[bA]-NH2; Pen-Pen disulfide) [Peptide of SEQ ID NO: 228]
5.02 nM	XNTXQXXXXKSX (Ac-[Pen]-NT-[W(7-Me)]-Q-[Pen]-Phe[4-(2-aminoethoxy)]-[2-Nal]-[a-MeLeu]-[Lys(Ac)]-[(D)Ser]-[bA]-NH2; Pen-Pen disulfide) [Peptide of SEQ ID NO: 222]
0.834 nM	Ac-[Pen][Cit]T[Trp(7-Me)]K(Ac)[Pen][AEF][2Nal][αMeK]K(Ac)N[dL]-NH2 (disulfide 1-6 (inferred)) [Peptide of SEQ ID NO: 331]
0.784 nM	Ac-[Pen]NT[Trp(7-Me)][Cit][Pen][AEF][2Nal][αMeK]K(Ac)N[Aib][dF]-NH2 (disulfide 1-6 (inferred)) [Peptide of SEQ ID NO: 346]
41.8 nM	XNTXKXXXXKNL (Ac-[Pen]-[(D)Asn]-T-[W(7-Me)]-[Lys(Ac)]-[Pen]-Phe[4-(2-aminoethoxy)]-[2-Nal]-[a-MeLys]-[Lys(Ac)]-N-[(D)Leu]-NH2; Pen-Pen disulfide) [Peptide of SEQ ID NO: 338]
0.934 nM	Ac-[Pen]NT[Trp(7-Me)][Cit][Pen][AEF][2Nal][αMeK]K(Ac)N[Aib]G-NH2 (disulfide 1-6 (inferred)) [Peptide of SEQ ID NO: 341]
0.639 nM	XNTXKXXXXKNX (Ac-[Pen]-NT-[W(7-Me)]-[Lys(Ac)]-[Pen]-Phe[4-(2-aminoethoxy)]-[2-Nal]-[a-MeLys]-[Lys(Ac)]-N-[Cit]-NH2; Pen-Pen disulfide) [Peptide of SEQ ID NO: 249]
1.9 nM	XNTXXXXXXKNL (not fully specified; Ac-[Pen]-N-T-[W(7-Me)]-[Lys(benzyl)]-[Pen]-Phe[4-(2-aminoethoxy)]-[2-Nal]-[a-MeLys]-[Lys(Ac)]-N-[(D)Leu]-NH2; Pen-Pen disulfide) [Peptide of SEQ ID NO: 318]
178 nM	XNTXQXXXXKPX (Ac-[Pen]-NT-[W(7-Me)]-Q-[Pen]-Phe[4-(2-aminoethoxy)]-[2-Nal]-[a-MeLeu]-[Lys(Ac)]-P-[bA]-NH2; Pen-Pen disulfide) [Peptide of SEQ ID NO: 211]
12.7 nM	Ac-[dR][Abu]QT[Trp(7-Me)]K(Ac)C[AEF][2Nal][αMeK]K(Ac)N[αMeF]-NH2 (thioether 2-7 (inferred)) [Peptide of SEQ ID NO: 327]
> 1 µM	XNTXQXXXXKNX (Ac-[Pen]-NT-[W(2,5,7-tritBu)]-Q-[Pen]-Phe[4-(2-aminoethoxy)]-[2-Nal]-[a-MeLys]-[Lys(Ac)]-N-[bA]-NH2; Pen-Pen disulfide) [Peptide of SEQ ID NO: 233]
0.714 nM	XNTXXXXXXKNL (Ac-[Pen]-N-T-[W(7-Me)]-[Lys(trifluoropropionic)]-[Pen]-Phe[4-(2-aminoethoxy)]-[2-Nal]-[a-MeLys]-[Lys(Ac)]-N-[(D)Leu]-NH2; Pen-Pen disulfide) [Peptide of SEQ ID NO: 319]
0.639 nM	Ac-[Pen]NT[Trp(7-Me)][Cit][Pen][AEF][2Nal][αMeK]K(Ac)N[Aib][dR]-NH2 (disulfide 1-6 (inferred)) [Peptide of SEQ ID NO: 345]
18.4 nM	Ac-[dR][Abu]QT[Trp(7-Me)]K(Ac)C[AEF][2Nal][αMeK]K(Ac)N-NH2 (thioether 2-7 (inferred)) [Peptide of SEQ ID NO: 326]
6.3 nM	Ac-[Pen]NT[Trp(7-Me)][Cit][Pen][AEF][2Nal][αMeK]K(Ac)N[Sar]-NH2 (disulfide 1-6 (inferred)) [Peptide of SEQ ID NO: 339]
5.85 nM	XNTXQXXXXKNX (Ac-[Pen]-NT-[W(4-Me)]-Q-[Pen]-Phe[4-(2-aminoethoxy)]-[2-Nal]-[a-MeLys]-[Lys(Ac)]-N-[bA]-NH2; Pen-Pen disulfide) [Peptide of SEQ ID NO: 231]
1.44 nM	XNTXKXXXXKNP (Ac-[Pen]-NT-[W(7-Me)]-[Lys(Ac)]-[Pen]-Phe[4-(2-aminoethoxy)]-[2-Nal]-[a-MeLys]-[Lys(Ac)]-N-P-NH2; Pen-Pen disulfide) [Peptide of SEQ ID NO: 253]
4.83 nM	XNTXKXXXXKNX (Ac-[Pen]-NT-[W(7-Me)]-[Lys(Ac)]-[Pen]-Phe[4-(2-aminoethoxy)]-[2-Nal]-[a-MeLys]-[Lys(Ac)]-N-[NMeArg]-NH2; Pen-Pen disulfide) [Peptide of SEQ ID NO: 246]
0.637 nM	Ac-[Pen]NT[Trp(7-Me)][Cit][Pen][AEF][2Nal][αMeK]K(Ac)N[Aib][dY]-NH2 (disulfide 1-6 (inferred)) [Peptide of SEQ ID NO: 347]
1.75 nM	XQTXQCXXXENX (Ac-Abu-Q-T-[W(7-Me)]-Q-C-Phe[4-(2-aminoethoxy)]-[2-Nal]-[THP]-E-N-[bA]-NH2; Abu-Cys thioether) [Peptide of SEQ ID NO: 204]
0.664 nM	Ac-[Pen]NT[Trp(7-Me)][Cit][Pen][AEF][2Nal][αMeK]K(Ac)N[Aib]A-NH2 (disulfide 1-6 (inferred)) [Peptide of SEQ ID NO: 342]
0.724 nM	Ac-[Pen]NT[Trp(7-Me)][Cit][Pen][AEF][2Nal][αMeK]K(Ac)N[Aib][dK]-NH2 (disulfide 1-6 (inferred)) [Peptide of SEQ ID NO: 344]
